Assay [1] deals with T1, Sema E-AP fusion protein (mouse Sema E fused to alkaline phosphatase) (mouse, UniProt Q62181 21-751).
T1 construct: written as in the name; Partially purified conditioned medium; not shown: secreted alkaline phosphatase of vector APtag-4
T1 sequence (looked up): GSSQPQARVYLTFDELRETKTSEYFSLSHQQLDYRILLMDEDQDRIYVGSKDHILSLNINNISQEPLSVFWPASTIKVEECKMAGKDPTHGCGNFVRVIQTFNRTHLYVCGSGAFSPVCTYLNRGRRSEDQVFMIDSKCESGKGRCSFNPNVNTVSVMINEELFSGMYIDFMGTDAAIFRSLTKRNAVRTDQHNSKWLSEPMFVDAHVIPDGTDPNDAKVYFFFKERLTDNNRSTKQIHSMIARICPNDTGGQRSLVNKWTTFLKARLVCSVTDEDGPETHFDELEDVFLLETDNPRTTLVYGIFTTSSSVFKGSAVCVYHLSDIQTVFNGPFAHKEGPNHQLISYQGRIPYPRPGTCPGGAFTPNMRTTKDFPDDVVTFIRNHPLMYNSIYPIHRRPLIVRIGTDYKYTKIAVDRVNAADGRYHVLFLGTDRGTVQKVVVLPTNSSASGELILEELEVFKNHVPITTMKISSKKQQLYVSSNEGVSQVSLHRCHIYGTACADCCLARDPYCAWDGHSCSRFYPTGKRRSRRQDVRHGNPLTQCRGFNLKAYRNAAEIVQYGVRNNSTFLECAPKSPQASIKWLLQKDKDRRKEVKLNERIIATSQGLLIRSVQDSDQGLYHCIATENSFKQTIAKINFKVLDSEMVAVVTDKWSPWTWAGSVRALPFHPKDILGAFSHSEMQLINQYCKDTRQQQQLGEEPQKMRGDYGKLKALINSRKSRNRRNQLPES
In words: AP fusion binding to transfected COS cells.

Assay [2] addresses T2, AP fusion with Drosophila D-Sema II (Drosophila, UniProt Q24323 26-724).
T2 construct: also called Drosophila Sema II; not shown: alkaline phosphatase (AP) reporter
T2 sequence (looked up): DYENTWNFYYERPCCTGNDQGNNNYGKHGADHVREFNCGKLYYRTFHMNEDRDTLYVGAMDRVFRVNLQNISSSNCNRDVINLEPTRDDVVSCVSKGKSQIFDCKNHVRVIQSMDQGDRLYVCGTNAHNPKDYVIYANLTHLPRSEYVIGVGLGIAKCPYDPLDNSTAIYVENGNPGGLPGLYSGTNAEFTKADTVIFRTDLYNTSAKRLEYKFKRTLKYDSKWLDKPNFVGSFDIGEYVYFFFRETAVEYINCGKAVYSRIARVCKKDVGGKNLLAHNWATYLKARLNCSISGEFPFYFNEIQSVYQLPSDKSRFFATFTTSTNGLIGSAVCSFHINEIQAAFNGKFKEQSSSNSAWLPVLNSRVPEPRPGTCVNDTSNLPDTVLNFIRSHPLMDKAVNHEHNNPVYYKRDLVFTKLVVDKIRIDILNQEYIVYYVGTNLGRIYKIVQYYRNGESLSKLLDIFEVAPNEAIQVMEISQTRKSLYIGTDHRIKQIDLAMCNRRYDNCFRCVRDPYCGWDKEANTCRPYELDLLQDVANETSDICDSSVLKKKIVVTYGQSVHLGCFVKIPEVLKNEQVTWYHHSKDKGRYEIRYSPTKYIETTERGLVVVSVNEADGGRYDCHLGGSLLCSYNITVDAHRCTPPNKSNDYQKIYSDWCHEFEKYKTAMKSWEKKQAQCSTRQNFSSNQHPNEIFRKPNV
In words: AP fusion binding to transfected COS cells.

Assay [3] concerns the target T3, AP fusion with the ectodomain of Sema VIa (UniProt O35464 19-649).
T3 construct: extracellular domain; also called Sema VIa ectodomain; not shown: alkaline phosphatase (AP) reporter
T3 sequence (looked up): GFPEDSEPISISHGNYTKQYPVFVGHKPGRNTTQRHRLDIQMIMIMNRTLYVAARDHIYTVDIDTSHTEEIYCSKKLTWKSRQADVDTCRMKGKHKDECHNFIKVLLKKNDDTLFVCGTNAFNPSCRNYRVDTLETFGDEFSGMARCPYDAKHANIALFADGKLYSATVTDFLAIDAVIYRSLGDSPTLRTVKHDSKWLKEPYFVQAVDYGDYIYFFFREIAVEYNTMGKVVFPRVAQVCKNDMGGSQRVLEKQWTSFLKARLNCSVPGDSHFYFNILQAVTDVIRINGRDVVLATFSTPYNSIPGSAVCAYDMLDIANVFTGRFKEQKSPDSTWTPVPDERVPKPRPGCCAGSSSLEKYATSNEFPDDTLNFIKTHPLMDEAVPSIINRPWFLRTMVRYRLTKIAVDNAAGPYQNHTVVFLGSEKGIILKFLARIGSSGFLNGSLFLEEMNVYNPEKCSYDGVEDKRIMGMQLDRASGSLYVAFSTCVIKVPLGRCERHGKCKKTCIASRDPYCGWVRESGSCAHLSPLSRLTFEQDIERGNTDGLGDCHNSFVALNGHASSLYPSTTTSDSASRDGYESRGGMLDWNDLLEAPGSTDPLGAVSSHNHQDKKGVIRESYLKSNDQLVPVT
The assay is described as follows: AP fusion binding to transfected COS cells.

In assay [4] the target is T4, alkaline phosphatase (AP) alone (UniProt P05187 23-511).
T4 construct: Control protein; also called alkaline phosphatase protein
The assay is described as follows: AP histochemistry on transfected COS cells.

Assay [5] concerns the target SemaIII-AP fusion protein (full-length Sema III fused at its carboxy terminus to alkaline phosphatase). In words: equilibrium binding of AP fusion to neuropilin-1-expressing cells, Hill fit.

As a reminder, the Kd is a measure of binding affinity in units of concentration.

T4 sequence (P05187 23-511 limits assumed): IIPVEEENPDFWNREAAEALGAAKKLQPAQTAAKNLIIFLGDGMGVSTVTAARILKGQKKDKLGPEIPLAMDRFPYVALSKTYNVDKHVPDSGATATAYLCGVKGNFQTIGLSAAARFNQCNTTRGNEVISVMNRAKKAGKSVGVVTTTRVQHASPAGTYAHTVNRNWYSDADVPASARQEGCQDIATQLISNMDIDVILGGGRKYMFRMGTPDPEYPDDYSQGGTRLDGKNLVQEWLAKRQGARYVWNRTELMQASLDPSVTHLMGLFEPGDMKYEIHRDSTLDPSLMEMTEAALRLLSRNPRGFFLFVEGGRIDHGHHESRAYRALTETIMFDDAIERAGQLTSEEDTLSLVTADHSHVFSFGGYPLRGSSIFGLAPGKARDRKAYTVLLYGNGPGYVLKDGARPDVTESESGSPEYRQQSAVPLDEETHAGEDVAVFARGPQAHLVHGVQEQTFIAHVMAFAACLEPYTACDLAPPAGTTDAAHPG

B1: mouse neuropilin-2(b5), myc-tagged, expressed in COS-7 cells (receptor, not shown: small tags and cut ends)
chain: RSQQDPPCGGRPNSKDAGYITSPGYPQDYPSHQNCEWIVYAPEPNQKIVLNFNPHFEIEKHDCKYDFIEIRDGDSESADLLGKHCGNIAPPTIISSGSVLYIKFTSDYARQGAGFSLRYEIFKTGSEDCSKNFTSPNGTIESPGFPEKYPHNLDCTFTILAKPRMEIILQFLTFDLEHDPLQVGEGDCKYDWLDIWDGIPHVGPLIGKYCGTKTPSKLRSSTGILSLTFHTDMAVAKDGFSARYYLIHQEPPENFQCNVPLGMESGRIANEQISASSTFSDGRWTPQQSRLHGDDNGWTPNLDSNKEYLQVDLRFLTMLTAIATQGAISRETQKGYYVKSYKLEVSTNGEDWMVYRHGKNHKIFQANNDATEVVLNKLHMPLLTRFIRIRPQTWHLGIALRLELFGCRVTDAPCSNMLGMLSGLIADTQISASSTREYLWSPSAARLVSSRSGWFPRNPQAQPGEEWLQVDLGTPKTVKGVIIQGARGGDSITAVEARAFVRKFKVSYSLNGKDWEYIQDPRTQQTKLFEGNMHYDTPDIRRFDPVPAQYVRVYPERWSPAGIGMRLEVLGCDWTDSKPTVETLGPTVKSEETTTPYPMDEDATECGENCSFEDDKDLQLPSGFNCNFDFPEETCGWVYDHAKWLRSTWISSANPNDRTFPDDKNFLKLQSDGRREGQYGRLISPPVHLPRSPVCMEFQYQAMGGHGVALQVVREASQESKLLWVIREDQGSEWKHGRIILPSYDMEYQIVFEGVIGKGRSGEISIDDIRISTDVPLENCMEPISAFAGEDFKGGTLPPGTEPTVDTVPVQPIPAYWYYVMAAGGAVLVLASVVLALVLHYHRFRYAAKKTDHSITYKTSHYTNGAPLAVEPTLTIKLEQERGSHC
notes: also called b5 isoform of neuropilin-2; SR2(b)5
Consider B1, for which the binding result is recorded as “binds” in assay [1], “no binding” in assay [2], “no binding” in assay [3] and “no binding” in assay [4].

B2: neuropilin-1 transiently expressed in COS-7 cells (receptor)
chain: FRSDKCGGTIKIENPGYLTSPGYPHSYHPSEKCEWLIQAPEPYQRIMINFNPHFDLEDRDCKYDYVEVIDGENEGGRLWGKFCGKIAPSPVVSSGPFLFIKFVSDYETHGAGFSIRYEIFKRGPECSQNYTAPTGVIKSPGFPEKYPNSLECTYIIFAPKMSEIILEFESFDLEQDSNPPGGVFCRYDRLEIWDGFPEVGPHIGRYCGQKTPGRIRSSSGILSMVFYTDSAIAKEGFSANYSVLQSSISEDFKCMEALGMESGEIHSDQITASSQYGTNWSVERSRLNYPENGWTPGEDSYREWIQVDLGLLRFVTAVGTQGAISKETKKKYYVKTYRVDISSNGEDWITLKEGNKAIIFQGNTNPTDVVFGVFPKPLITRFVRIKPASWETGISMRFEVYGCKITDYPCSGMLGMVSGLISDSQITASNQGDRNWMPENIRLVTSRTGWALPPSPHPYINEWLQVDLGDEKIVRGVIIQGGKHRENKVFMRKFKIAYSNNGSDWKMIMDDSKRKAKSFEGNNNYDTPELRAFTPLSTRFIRIYPERATHSGLGLRMELLGCEVEVPTAGPTTPNGNPVDECDDDQANCHSGTGDDFQLTGGTTVLATEKPTIIDSTIQSEFPTYGFNCEFGWGSHKTFCHWEHDSHAQLRWRVLTSKTGPIQDHTGDGNFIYSQADENQKGKVARLVSPVVYSQSSAHCMTFWYHMSGSHVGTLRVKLHYQKPEEYDQLVWMVVGHQGDHWKEGRVLLHKSLKLYQVIFEGEIGKGNLGGIAVDDISINNHIPQEDCAKPTDLDKKNTEIKIDETGSTPGYEEGKGDKNISRKPGNVLKTLDPILITIIAMSALGVLLGAVCGVVLYCACWHNGMSERNLSALENYNFELVDGVKLKKDKLNPQSNYSEA
notes: also called npn-1; SR1
On to B2, for which the Kd in assay [5] is 0.325 nM.

Source of the values: patent publication US6623738 (University of California, dated 2003).
